The values below come from patent US20190367620A1 (Merck KGaA, published 2019).

For assay [1], the target named is T1, FGFR1 on NCI-H520 cells (human, UniProt P11362 22-822). In words: cell-based or functional assay.
The target in assay [2] is T2, human FGFR1b-IIIb extracellular domain with a HIS tag (human).
T2 construct: also called huFGFR1b-IIIb; hFGFR1b-IIIb
T2 chain: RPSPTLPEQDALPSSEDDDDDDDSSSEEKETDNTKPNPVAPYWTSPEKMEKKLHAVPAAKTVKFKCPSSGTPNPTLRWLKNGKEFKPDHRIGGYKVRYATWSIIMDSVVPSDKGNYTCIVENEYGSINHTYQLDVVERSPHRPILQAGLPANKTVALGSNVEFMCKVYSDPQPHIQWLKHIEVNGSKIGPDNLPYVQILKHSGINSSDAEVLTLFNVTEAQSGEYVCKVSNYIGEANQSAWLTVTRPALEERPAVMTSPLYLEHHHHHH
Briefly: SPR (BIAcore), IgG1 format; target IIIb by paragraph 74 and paragraph 125, the table's title says IIIc; IgG1 (bivalent), not SEEDbody. As to the method: (§1) Binding affinities of anti-FGFR1 antibodies to FGFR1 were measured by Surface Plasmon Resonance (SPR) using a GE Healthcare BIAcore 4000 instrument as follows. Goat anti-human Fc antibody (Jackson ImmunoResearch Laboratories #109-005-098) was first immobilized on BIAcore carboxymethylated dextran CM5 chip using direct coupling to free amino groups following the procedure described by the manufacturer. Antibodies were then captured on the CM5 biosensor chip to achieve approximately 200 response units (RU). Binding measurements were performed using the running HBS-EP+ buffer. A 2-fold dilution series of His-tagged FGFR1 proteins were injected at a flow rate of 30 μl/min at 25° C. Association rates (kₒₙ, per mol/s) and dissociation rates (koff, per s) were calculated using a simple 1:1 Langmuir binding model (Biacore 4000 Evaluation Software). The equilibrium dissociation constant (KD, mol) was calculated as the ratio of koff/kₒₙ.
The affinities to human FGFR1b-IIIb for the affinity matured clones reformatted as IgG and monovalent SEEDbodies were measured by BIAcore (using a protocol similar to the one described in Example 1.8) and compared to those of mAb #08 (Table 5).
(Surface plasmon resonance follows binding to a sensor surface in real time, without labels.)

Another assay deals with T3, Human FGFR1 D2-His6 (human, UniProt P11362 22-254).
T3 construct: also called D2 domain; F3FR1c-D2
T3 sequence: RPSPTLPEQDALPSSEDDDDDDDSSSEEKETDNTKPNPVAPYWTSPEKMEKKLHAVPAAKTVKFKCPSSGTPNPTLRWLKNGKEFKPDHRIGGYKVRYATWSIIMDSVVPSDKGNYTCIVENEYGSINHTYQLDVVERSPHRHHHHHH
Briefly: ELISA, antibody titrated on FGFR1 Ig-D2, O.D. 450 nm [panel FGFR1 Ig-D2]. On the technique in general: In an ELISA, binding on a coated surface is turned into a signal by an enzyme label.

Another assay has as its target T4, ratFGFR1a-IIIc (rat, UniProt Q04589 22-376).
T4 construct: Bought, His6 tag; also called rat FGFR1a-IIIc His6-tagged
T4 sequence (looked up): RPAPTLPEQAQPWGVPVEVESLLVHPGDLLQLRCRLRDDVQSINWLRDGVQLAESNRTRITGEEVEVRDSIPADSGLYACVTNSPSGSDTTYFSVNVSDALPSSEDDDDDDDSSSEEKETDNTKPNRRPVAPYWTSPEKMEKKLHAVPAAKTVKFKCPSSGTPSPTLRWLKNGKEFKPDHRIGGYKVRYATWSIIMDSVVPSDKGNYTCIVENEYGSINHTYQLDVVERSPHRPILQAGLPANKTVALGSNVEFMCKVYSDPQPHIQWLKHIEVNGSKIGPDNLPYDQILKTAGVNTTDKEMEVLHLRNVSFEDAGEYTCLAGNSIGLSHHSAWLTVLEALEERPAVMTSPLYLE
Briefly: SPR (Biacore 4000), antibody captured, His-tagged FGFR1 injected. The protocol: as §1

For assay [3], the target named is T5, human FGFR1b-IIIc extracellular domain with a HIS tag (human, UniProt P11362 22-376).
T5 construct: also called huFGFR1b-IIIc; hFGFR1b-IIIc
T5 sequence: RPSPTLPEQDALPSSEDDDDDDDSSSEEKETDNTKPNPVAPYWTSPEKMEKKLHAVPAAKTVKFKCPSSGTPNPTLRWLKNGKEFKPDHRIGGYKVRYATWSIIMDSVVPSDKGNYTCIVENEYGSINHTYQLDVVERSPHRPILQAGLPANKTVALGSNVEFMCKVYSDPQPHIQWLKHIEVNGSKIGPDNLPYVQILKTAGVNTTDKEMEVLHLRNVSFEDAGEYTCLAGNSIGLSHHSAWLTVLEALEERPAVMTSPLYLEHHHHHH
In words: SPR (Biacore 4000), antibody captured, His-tagged FGFR1 injected; differs from the cell of Table 1. As to the method:
as §1

The target in assay [4] is T1, FGFR1 on NCI-H520 cells. Briefly: cell-based or functional assay. The source holds these as a separate data set.
Another assay concerns the target T6, muFGFR1a-IIIc (mouse, UniProt P16092 22-376).
T6 construct: Bought, His6 tag; also called mouse FGFR1a-IIIc His6-tagged; murine FGFR1a-IIIc
T6 sequence (looked up): T4 sequence (looked up) with A53V, N83S, S164N, D287V
In words: SPR (Biacore 4000), antibody captured, His-tagged FGFR1 injected; no unit in the table, nM inferred from paragraph 90. The protocol: as §1

A further assay has as its target T7, rheFGFR1a-IIIc (rhesus monkey).
T7 construct: Bought, His6 tag; also called rhesus monkey FGFR1a-IIIc His6-tagged
The description is as above. As to the method: as §1

Assay [5] has as its target T5, human FGFR1b-IIIc extracellular domain …. Briefly: ELISA, EC50 from OD450 curves, monovalent SEEDbody format. The protocol: (§2) The binding selectivity of the antibodies were tested by ELISA against the different FGFR family members: FGFR1, FGFR2, FGFR3 and FGFR4. Briefly plates were coated overnight with the different His6-tagged FGFR proteins, after blocking with 1% Bovine Serum albumin, 1 or 0.1 μg/ml of anti-FGFR1 antibodies were incubated for 1 h at room temperature. After washing, the bound antibodies were incubated for 1 h at room temperature with a peroxidase affiniPure F(ab′)2 Fragment goat anti-human Fc (Jackson ImmunoResearch Laboratories #109-036-098) and detection was performed using the TMB HRP Substrate solution (BioFx Lab # TMBW-1000-01).
(§3) The antibody #A08 both as an IgG1 (bivalent) and as a SEEDbody (monovalent), was affinity matured using the yeast display technology described in (Rhiel et al. 2014) and performing light chain shuffling from immunized OmniRats and naïve human library followed by CDR-H3 parsimonious mutagenesis. Following several sorting rounds, yeast clones were picked, unique clones were reformatted as described in Examples 1.6 and 3.1. The binding affinities of the anti-FGFR1 molecules against human FGFR1b-IIIb) and human FGFR1b-IIIc) were measured by ELISA using a similar protocol as described in Example 1.9. The OD450 was plotted against the antibody concentration and GraphPad Prism software was used to calculate EC₅₀ values (see FIG. 10). […] The best results were obtained with mAb #A02 and #C01 showing an EC50 improvement in both IgG1 and SEEDbody formats.

Assay [6] concerns the target T2, human FGFR1b-IIIb extracellular domain …. The description is as above. As to the method:
as §2, §3

Positions count from the first letter of the chain named.

T1 sequence (P11362 22-822): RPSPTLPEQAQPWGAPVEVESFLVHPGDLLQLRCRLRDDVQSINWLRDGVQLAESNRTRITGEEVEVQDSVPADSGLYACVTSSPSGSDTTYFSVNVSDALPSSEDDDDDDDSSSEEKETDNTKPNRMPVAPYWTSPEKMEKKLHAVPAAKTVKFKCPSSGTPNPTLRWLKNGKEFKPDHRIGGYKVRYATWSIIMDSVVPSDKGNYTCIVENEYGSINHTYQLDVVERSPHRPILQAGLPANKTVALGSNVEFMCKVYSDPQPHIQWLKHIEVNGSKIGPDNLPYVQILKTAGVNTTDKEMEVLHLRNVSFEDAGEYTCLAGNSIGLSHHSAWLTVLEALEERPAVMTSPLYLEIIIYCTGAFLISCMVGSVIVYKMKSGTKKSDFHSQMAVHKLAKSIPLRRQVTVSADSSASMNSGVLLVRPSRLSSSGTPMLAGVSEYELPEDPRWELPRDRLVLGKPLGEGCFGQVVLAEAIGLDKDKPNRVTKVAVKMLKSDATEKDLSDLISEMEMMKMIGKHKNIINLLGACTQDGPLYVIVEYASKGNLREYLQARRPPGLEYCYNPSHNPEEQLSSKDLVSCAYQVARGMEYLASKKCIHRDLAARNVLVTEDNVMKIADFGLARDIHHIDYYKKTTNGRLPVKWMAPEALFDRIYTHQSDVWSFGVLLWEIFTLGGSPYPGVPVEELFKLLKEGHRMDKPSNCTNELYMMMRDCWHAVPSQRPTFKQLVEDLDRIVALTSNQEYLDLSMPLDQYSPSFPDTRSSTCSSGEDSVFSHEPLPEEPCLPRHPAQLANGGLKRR

B1: #A08 IgG1 (standard IgG1 built from the #A08 lead heavy and light chains) (antibody, V domains shown)
VH: EVQLQESGPGLVKPSGTLSLTCAVSGGSISSNNWWSWVRQPPGKGLEWIGEIYHSGSTSYNPSLKSRVTISVDKSKNQFSLKLSSVTAADTAVYYCARGTDWFDPWGQGTLVTVSS
VL: SYVLTQPPSVSVAPGQTARITCGGNNIGSESVHWYQQKPGQAPVLVVYDDSDRPSGIPERFSGSNSGNTATLTISRVEAGDEADYYCQVWDSTSDHRVFGGGTKLTVLG
notes: also called #A08 lead IgG1; mAb #A08 in the IgG1 format
As to B1, in the assay with FGFR1 on NCI-H520 cells [1], the “IC50, pFGFR1 inhibition in NCI-H520 cells, FGF1, IgG1” value is 1e-09 M; the “IC50, pFGFR1 inhibition in NCI-H520 cells, FGF2, IgG1” value stood at 2e-10 M; the “IC50, pFGFR1 inhibition in NCI-H520 cells, non-stimulated, IgG1 (asterisk: partial response)” value stood at 5e-08 M. Moreover, the Kd in [2] was 0.06 nM.

B2: mAb #A05 (antibody, V domains shown)
VH: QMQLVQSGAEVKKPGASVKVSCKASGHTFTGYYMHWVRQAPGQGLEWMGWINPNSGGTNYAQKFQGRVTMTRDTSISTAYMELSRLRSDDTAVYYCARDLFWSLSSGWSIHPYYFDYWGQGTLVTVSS
VL: QSALTQPASVSGSPGQSITISCTGTSSDVGSYNLVSWYQQHPGKAPKLMIYGGSKRPSGVPDRFSGSKSDTSASLTISGLQAEDEADYYCCSYTYNGDVFGTGTKVTVL
notes: also called #A05 hit; A05 (IgG1)
For B2, in the assay with FGFR1 on NCI-H520 cells [1], the “IC50, pFGFR1 inhibition in NCI-H520 cells, FGF1, IgG1 (asterisk: partial response)” value worked out at 8e-09 M; the “IC50, pFGFR1 inhibition in NCI-H520 cells, FGF2, IgG1” value was 3e-09 M; the “IC50, pFGFR1 inhibition in NCI-H520 cells, non-stimulated, IgG1” value was more than 1e-06 M. Moreover, the binding result with Human FGFR1 D2-His6 is “no binding (tested: about 0.7 nM (Log(nM) about -0.15))”. Besides, the binding result with ratFGFR1a-IIIc is on record as “no binding”. This molecule also displayed a Kd in [3] of 0.01 nM. In the assay with FGFR1 on NCI-H520 cells [4], the “IC50, inhibition of P-FGFR1 in NCI-H520 cells, FGF1 stimulated (asterisk: partial response)” value came out at 1 nM and the “IC50, inhibition of P-FGFR1 in NCI-H520 cells, FGF2 stimulated” value was 1 nM. In the assay with muFGFR1a-IIIc, this molecule gave a Kd of 1.6 nM. Also, the Kd in the assay with rheFGFR1a-IIIc was found to be 0.51 nM.

B3: #D02 SEEDbody (monovalent) (antibody)
heavy: QVQLQESGPGLVKPSGTLSLTCAVSGGSISSNNWWSWVRQPPGKGLEWIGEIYHSGSTSYNPSLKSRVTISVDKSKNQFSLKLSSVTAADTAVYYCARGTDWIDTWGQGTLVTVSSASTKGPSVFPLAPSSKSTSGGTAALGCLVKDYFPEPVTVSWNSGALTSGVHTFPAVLQSSGLYSLSSVVTVPSSSLGTQTYICNVNHKPSNTKVDKRVEPKSCDKTHTCPPCPAPELLGGPSVFLFPPKPKDTLMISRTPEVTCVVVDVSHEDPEVKFNWYVDGVEVHNAKTKPREEQYNSTYRVVSVLTVLHQDWLNGKEYKCKVSNKALPAPIEKTISKAKGQPFRPEVHLLPPSREEMTKNQVSLTCLARGFYPKDIAVEWESNGQPENNYKTTPSRQEPSQGTTTFAVTSKLTVDKSRWQQGNVFSCSVMHEALHNHYTQKTISLSPG
chain: EPKSSDKTHTCPPCPAPELLGGPSVFLFPPKPKDTLMISRTPEVTCVVVDVSHEDPEVKFNWYVDGVEVHNAKTKPREEQYNSTYRVVSVLTVLHQDWLNGKEYKCKVSNKALPAPIEKTISKAKGQPREPQVYTLPPPSEELALNELVTLTCLVKGFYPSDIAVEWLQGSQELPREKYLTWAPVLDSDGSFFLYSILRVAAEDWKKGDTFSCSVMHEALHNHYTQKSLDRSPG
light: SYVLTQPPSVSVAPGQTARITCGGNNIGSESVHWYQQKPGQAPVLVVYDDSDRPSGIPERFSGSNSGNTATLTISRVEAGDEADYYCQVWDSTSDHRVFGGGTKLTVLGQPKAAPSVTLFPPSSEELQANKATLVCLISDFYPGAVTVAWKADSSPVKAGVETTTPSKQSNNKYAASSYLSLTPEQWKSHKSYSCQVTHEGSTVEKTVAPTECS
notes: also called #D02-SEED(AG)
Consider B3, for which the binding result in assay [5] and in assay [6] was “binds” each time.

B4: #G04 SEEDbody (monovalent) (antibody)
heavy: B3 heavy with I103Y, T105L
chain: B3 chain
light: B3 light
notes: also called #G04-SEED(AG)
For the molecule B4, the binding result in assay [5] and in assay [6] was “binds” throughout.
